Measurements: paper PMC3154878

Assay: cycloheximide chase, Western blot, Hepa1A
Conditions: glycan lost; control: wild type

B1: ERManI: ERManIO-def (protein)
parent chain: MAACEGRRSGALGSSQSDFLTPPVGGAPWAVATTVVMYPPPPPPPHRDFISVTLSFGENYDNSKSWRRRSCWRKWKQLSRLQRNMILFLLAFLLFCGLLFYINLADHWKALAFRLEEEQKMRPEIAGLKPANPPVLPAPQKADTDPENLPEISSQKTQRHIQRGPPHLQIRPPSQDLKDGTQEEATKRQEAPVDPRPEGDPQRTVISWRGAVIEPEQGTELPSRRAEVPTKPPLPPARTQGTPVHLNYRQKGVIDVFLHAWKGYRKFAWGHDELKPVSRSFSEWFGLGLTLIDALDTMWILGLRKEFEEARKWVSKKLHFEKDVDVNLFESTIRILGGLLSAYHLSGDSLFLRKAEDFGNRLMPAFRTPSKIPYSDVNIGTGVAHPPRWTSDSTVAEVTSIQLEFRELSRLTGDKKFQEAVEKVTQHIHGLSGKKDGLVPMFINTHSGLFTHLGVFTLGARADSYYEYLLKQWIQGGKQETQLLEDYVEAIEGVRTHLLRHSEPSKLTFVGELAHGRFSAKMDHLVCFLPGTLALGVYHGLPASHMELAQELMETCYQMNRQMETGLSPEIVHFNLYPQPGRRDVEVKPADRHNLLRPETVESLFYLYRVTGDRKYQDWGWEILQSFSRFTRVPSGGYSSINNVQDPQKPEPRDKMESFFLGETLKYLFLLFSDDPNLLSLDAYVFNTEAHPLPIWTPA
Question: With B1 as the protein, how does the degradation_or_half_life read?
Answer: no change
